Measured values published in PMC3218234.

Tests used:
Test in all cases: SPR
Conditions in all cases: remark: other sources report otherwise
[1] = target: human IgG1-Fc homodimer glycoform Fc-1 (bisecting-GlcNAc-Man3GlcNAc2) (human)
[2] = target: human IgG1-Fc homodimer glycoform Fc-5 (Man3GlcNAc2) (human)
[3] = target: wild type recombinant human IgG1-Fc homodimer carrying fucosylated complex type N-glycans (CT-Fc) (human)

- Kd [1]: 2.2 µM
- Kd [2]: 2.9 µM
- Kd [3]: 2.1 µM
B1: FcγRIIb, P31994 43-310 (receptor)
chain: TPAAPPKAVLKLEPQWINVLQEDSVTLTCRGTHSPESDSIQWFHNGNLIPTHTQPSYRFKANNNDSGEYTCQTGQTSLSDPVHLTVLSEWLVLQTPHLEFQEGETIVLRCHSWKDKPLVKVTFFQNGKSKKFSRSDPNFSIPQANHSHSGDYHCTGNIGYTLYSSKPVTITVQAP
modifications: not checked
